Earlier results, collected in PMC3428507.
pKd: −log10 of the molar value.

Target: Pf1 MBD (Homo sapiens) (UniProt Q96QT6)
Sequence (Q96QT6 200-241): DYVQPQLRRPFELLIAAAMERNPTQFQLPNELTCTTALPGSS

Chain of MRG15 MRG (Q9UBU8 188-362): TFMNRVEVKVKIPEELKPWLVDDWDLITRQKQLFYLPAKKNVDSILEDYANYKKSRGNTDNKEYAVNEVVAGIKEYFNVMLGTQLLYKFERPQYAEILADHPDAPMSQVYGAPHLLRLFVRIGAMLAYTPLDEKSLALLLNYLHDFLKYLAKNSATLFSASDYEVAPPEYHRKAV

pKd: 7.82
Substance: MRG15 MRG (from UniProt Q9UBU8)
